Paper PMC8753184

Experiment: preparative SEC and analytical FSEC homogeneity
Conditions: glycan lost; control: mG6PC1-WT

B1: mouse glucose-6-phosphatase catalytic subunit 1 (mG6PC1): N96A (protein)
parent chain: MEEGMNILHDFGIQSTRYLQVNYQDSQDWFILVSVIADLRNAFYVLFPIWFHLKETVGINLLWVAVVGDWFNLVFKWILFGQRPYWWVLDTDYYSNSSVPIIKQFPVTCETGPGSPSGHAMGAAGVYYVMVTSTLAIFRGKKKPTYGFRCLNVILWLGFWAVQLNVCLSRIYLAAHFPHQVVAGVLSGIAVAETFSHIRGIYNASLRKYCLITIFLFGFALGFYLLLKGLGVDLLWTLEKAKRWCERPEWVHLDTTPFASLFKNLGTLLGLGLALNSSMYRKSCKGELSKLLPFRFACIVASLVLLHLFDSLKPPSQVELIFYILSFCKSATVPFASVSLIPYCLARILGQTHKKSL
  stability_or_folding: no change
